± gives the uncertainty stated by the source.
Experiment: self-splicing fitness, log relative to wild type (ln ratio); higher = more splicing; Tetrahymena group I intron in knt gene, E. coli kanamycin selection, DiMSum; sequences stand for … in CUCUCU…GGAGGGAAAAGUUAUCAGGCAUGCACCUGGUAGCUAGUCUUUAAACCAAUAGAUUGCAUCGGUUUAAAAGGCAAGACCGUCAAAUUGCGGGAAAGGGGUCAACAGCCGUUCAGUACCAAGUCUCAGGGGAAACUUUGAGAUGGCCUUGCAAAGGGUAUGGUAAUAAGCUGACGGACAUGGUCCUAACCACGCAGCCAAGUCCUAAGUCAACAGAUCUUCUGUUGAUAUGGAUGCAGUUCACAGACUAAAUGUCGGUCGGGGAAGAUGUAUUCUUCUCAUAAGAUAUAGUCGGACCUCUCCUUAAUGGGAGCUAGCGGAUGAAGUGAUGCAACACUGGAGCCGCUGGGAACUAAUUUGUAUGCGAAAGUAUAUUGAUUAGUUUUGGAGUACUCGUGGUCG
How it was run: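 Library with all eight P1ex-region intron nucleotides randomised, intron inside the knt kanamycin-resistance gene on pET-22b(+), in E. coli BL21(DE3). Cells grew overnight at 37°C or 30°C on LB agar with or without 25 μg/mL kanamycin (plus 100 μg/mL carbenicillin, 50 μM IPTG, 0.2% rhamnose), in six replicate transformations. Pooled colonies were amplicon-sequenced on Illumina HiSeq 2500. DiMSum fitness is the error-weighted combination of wild-type-normalised replicate fold changes, kanamycin versus none.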

| Sequence | self-splicing fitness (ln) (30 °C) | self-splicing fitness (ln) (37 °C) |
| --- | --- | --- |
| ACUCAGCAAUAUUACGCCUA | -0.864 ± 0.15 | -0.0704 ± 0.12 |
| ACUCAGCAAUAUUACGCGCA | -0.615 ± 0.14 | -0.153 ± 0.1 |
| ACUCAGCAAUAUUACGCGCC | -1.17 ± 0.16 | -0.503 ± 0.17 |
| ACUCAGCAAUAUUACGCUGA | -3.74 ± 0.3 | -3.15 ± 0.34 |
| ACUCAGCAAUAUUACGCUGC | -3.36 ± 0.3 | -2.24 ± 0.29 |
| ACUCAGCAAUAUUACGCUUG | -1.83 ± 0.069 | -0.599 ± 0.083 |
| ACUCAGCAAUAUUACGCUUU | -1.85 ± 0.095 | -0.42 ± 0.11 |
| ACUCAGCAAUAUUACGGCCA | -1.28 ± 0.13 | -0.0774 ± 0.16 |
| ACUCAGCAAUAUUACGGCGC | -0.183 ± 0.068 | 0.000506 ± 0.097 |
| ACUCAGCAAUAUUACGGGGC | -4.64 ± 0.34 | -2.93 ± 0.44 |
| ACUCAGCAAUAUUACGGUAA | -1.66 ± 0.092 | -0.871 ± 0.081 |
| ACUCAGCAAUAUUACGGUGG | -4.04 ± 0.22 | -2.67 ± 0.18 |
| ACUCAGCAAUAUUACGUCGA | -3.15 ± 0.25 | -1.94 ± 0.18 |
| ACUCAGCAAUAUUACGUGCA | -0.681 ± 0.095 | -0.372 ± 0.11 |
| ACUCAGCAAUAUUACGUUGC | -3.43 ± 0.16 | -3.57 ± 0.26 |
| ACUCAGCAAUAUUACGUUUG | -2.36 ± 0.095 | -1.94 ± 0.14 |
| ACUGAGCAAUAUUACGAGCG | -2.44 ± 0.14 | -0.615 ± 0.13 |
| ACUGAGCAAUAUUACGAGGU | -2.91 ± 0.14 | -1.99 ± 0.23 |
| ACUGAGCAAUAUUACGAUAG | -5.01 ± 0.39 | -1.78 ± 0.17 |
| ACUGAGCAAUAUUACGAUGG | -2.16 ± 0.096 | -1.13 ± 0.1 |
| ACUGAGCAAUAUUACGCCAA | -3.45 ± 0.29 | -2.74 ± 0.22 |
| ACUGAGCAAUAUUACGCGUU | -3.38 ± 0.17 | -1.51 ± 0.13 |
| ACUGAGCAAUAUUACGCUCA | -3.23 ± 0.24 | -1.87 ± 0.18 |
| ACUGAGCAAUAUUACGCUUU | -2.53 ± 0.21 | -1.37 ± 0.18 |

| Sequence | self-splicing fitness (ln) (30 °C) | self-splicing fitness (ln) (37 °C) |
| --- | --- | --- |
| ACUGAGCAAUAUUACGGACC | -2.23 ± 0.26 | -1.14 ± 0.26 |
| ACUGAGCAAUAUUACGGCCG | -1.89 ± 0.17 | -0.752 ± 0.2 |
| ACUGAGCAAUAUUACGGCGC | -1.09 ± 0.088 | -0.47 ± 0.11 |
| ACUGAGCAAUAUUACGGGGA | -2.48 ± 0.17 | -1.92 ± 0.18 |
| ACUGAGCAAUAUUACGGGGU | -2.72 ± 0.14 | -3.13 ± 0.28 |
| ACUGAGCAAUAUUACGGUAU | -3.55 ± 0.18 | -3.17 ± 0.26 |
| ACUGAGCAAUAUUACGUACG | -2.42 ± 0.22 | -2.07 ± 0.25 |
| ACUGAGCAAUAUUACGUCGA | -3.59 ± 0.22 | -2.07 ± 0.18 |
| ACUUAGCAAUAUUACGAAUC | -3.59 ± 0.23 | -0.386 ± 0.23 |
| ACUUAGCAAUAUUACGACCG | -0.573 ± 0.18 | -0.217 ± 0.26 |
| ACUUAGCAAUAUUACGAGAU | -2.61 ± 0.2 | -2.95 ± 0.24 |
| ACUUAGCAAUAUUACGAGCC | -2.49 ± 0.3 | -1.26 ± 0.31 |
| ACUUAGCAAUAUUACGAGUA | 0.101 ± 0.18 | -1.33 ± 0.21 |
| ACUUAGCAAUAUUACGAUCG | -1.4 ± 0.11 | -1.23 ± 0.14 |
| ACUUAGCAAUAUUACGAUUG | -3.17 ± 0.2 | -0.306 ± 0.16 |
| ACUUAGCAAUAUUACGCAAU | -3.64 ± 0.26 | -2.05 ± 0.21 |
| ACUUAGCAAUAUUACGCUCA | -0.842 ± 0.13 | -0.196 ± 0.15 |
| ACUUAGCAAUAUUACGGACC | -0.607 ± 0.15 | -0.756 ± 0.25 |
| ACUUAGCAAUAUUACGGCCA | -0.83 ± 0.13 | -0.409 ± 0.19 |
| ACUUAGCAAUAUUACGGUUA | -1.27 ± 0.17 | -0.752 ± 0.15 |
| ACUUAGCAAUAUUACGUAAA | -2.37 ± 0.2 | -0.419 ± 0.2 |
| ACUUAGCAAUAUUACGUACG | -1.45 ± 0.099 | -1.04 ± 0.13 |
| ACUUAGCAAUAUUACGUAGA | -3.26 ± 0.13 | -1.59 ± 0.11 |
| ACUUAGCAAUAUUACGUCGG | -2.34 ± 0.14 | -1.59 ± 0.17 |

| Sequence | self-splicing fitness (ln) (30 °C) | self-splicing fitness (ln) (37 °C) |
| --- | --- | --- |
| ACUUAGCAAUAUUACGUGAU | -2.53 ± 0.1 | -1.37 ± 0.1 |
| ACUUAGCAAUAUUACGUGGC | -2.83 ± 0.16 | -2.85 ± 0.29 |
| AGAAAGCAAUAUUACGAACC | -1.29 ± 0.17 | -0.276 ± 0.13 |
| AGAAAGCAAUAUUACGAGGG | -2.8 ± 0.21 | -2.61 ± 0.36 |
| AGAAAGCAAUAUUACGAUGC | -2.16 ± 0.14 | -1.38 ± 0.13 |
| AGAAAGCAAUAUUACGCACA | -0.139 ± 0.1 | -0.236 ± 0.12 |
| AGAAAGCAAUAUUACGCACU | -0.82 ± 0.15 | -1.17 ± 0.18 |
| AGAAAGCAAUAUUACGCCUC | -1.37 ± 0.17 | -0.948 ± 0.23 |
| AGAAAGCAAUAUUACGCGAA | -1.95 ± 0.13 | -1.08 ± 0.16 |
| AGAAAGCAAUAUUACGCGCA | -0.218 ± 0.094 | 0.174 ± 0.11 |
| AGAAAGCAAUAUUACGCGUU | -2.71 ± 0.16 | -2.34 ± 0.17 |
| AGAAAGCAAUAUUACGCUAG | -3.32 ± 0.22 | -2.65 ± 0.21 |
| AGAAAGCAAUAUUACGCUCU | -3.2 ± 0.37 | -2.58 ± 0.49 |
| AGAAAGCAAUAUUACGCUUC | -1.58 ± 0.27 | -2.22 ± 0.39 |
| AGAAAGCAAUAUUACGGAAA | -1.63 ± 0.14 | -1.33 ± 0.15 |
| AGAAAGCAAUAUUACGGAUU | -2.21 ± 0.14 | -0.867 ± 0.16 |
| AGAAAGCAAUAUUACGGGGU | -3.8 ± 0.22 | -2.34 ± 0.23 |
| AGAAAGCAAUAUUACGGUAC | -3.29 ± 0.32 | -1.67 ± 0.23 |
| AGAAAGCAAUAUUACGUAAA | -2.15 ± 0.12 | -1.88 ± 0.14 |
| AGAAAGCAAUAUUACGUAAG | -1.61 ± 0.084 | -0.0907 ± 0.095 |
| AGAAAGCAAUAUUACGUGGU | -4.26 ± 0.29 | -2.41 ± 0.16 |
| AGACAGCAAUAUUACGACUC | -2.28 ± 0.18 | -0.623 ± 0.2 |
| AGACAGCAAUAUUACGAGGU | -3.46 ± 0.16 | -1.87 ± 0.13 |
| AGACAGCAAUAUUACGAUCU | -2.62 ± 0.12 | -0.863 ± 0.1 |

| Sequence | self-splicing fitness (ln) (30 °C) | self-splicing fitness (ln) (37 °C) |
| --- | --- | --- |
| AGACAGCAAUAUUACGCGGC | -3.51 ± 0.24 | -2.15 ± 0.21 |
| AGACAGCAAUAUUACGCGUA | -1.43 ± 0.084 | -0.867 ± 0.074 |
| AGACAGCAAUAUUACGGAAA | -3.32 ± 0.26 | -1.48 ± 0.13 |
| AGACAGCAAUAUUACGGAUU | -2.55 ± 0.088 | -1.45 ± 0.089 |
| AGACAGCAAUAUUACGGCCG | -1.26 ± 0.078 | -0.403 ± 0.12 |
| AGACAGCAAUAUUACGGCGA | -0.438 ± 0.069 | -0.143 ± 0.083 |
| AGACAGCAAUAUUACGGGAG | -3.93 ± 0.16 | -2.89 ± 0.17 |
| AGACAGCAAUAUUACGGGCU | -1.78 ± 0.11 | -0.732 ± 0.13 |
| AGACAGCAAUAUUACGGGUU | -1.96 ± 0.1 | -1.12 ± 0.12 |
| AGACAGCAAUAUUACGGUAU | -2.55 ± 0.1 | -0.734 ± 0.091 |
| AGACAGCAAUAUUACGGUCU | -3.78 ± 0.23 | -2.48 ± 0.25 |
| AGACAGCAAUAUUACGGUGA | -1.49 ± 0.074 | -0.921 ± 0.095 |
| AGACAGCAAUAUUACGUAGA | -2.6 ± 0.081 | -2.5 ± 0.11 |
| AGACAGCAAUAUUACGUAGG | -2.6 ± 0.11 | -1.28 ± 0.11 |
| AGACAGCAAUAUUACGUUCU | -3.7 ± 0.18 | -3.16 ± 0.21 |
| AGAGAGCAAUAUUACGAACC | -2.98 ± 0.39 | -1.57 ± 0.38 |
| AGAGAGCAAUAUUACGAAGG | -3.13 ± 0.39 | -1.42 ± 0.37 |
| AGAGAGCAAUAUUACGAGUA |  | -2.01 ± 0.45 |
| AGAGAGCAAUAUUACGAUUG | -3.12 ± 0.25 | -2.88 ± 0.35 |
| AGAGAGCAAUAUUACGCAAG | -3.46 ± 0.3 | -2.29 ± 0.3 |
| AGAGAGCAAUAUUACGCGAG | -2.97 ± 0.34 |  |
| AGAGAGCAAUAUUACGCGUA | -2.46 ± 0.27 | -2.08 ± 0.48 |
| AGAGAGCAAUAUUACGCGUC | -2.64 ± 0.36 | -0.28 ± 0.28 |
| AGAGAGCAAUAUUACGCGUU | -2.09 ± 0.4 |  |
